Measured values taken from patent publication US20240409586A1, “CYCLIC POLYPEPTIDE CARRIER FOR EFFICIENT DELIVERY OF NUCLEIC ACID, AND VARIANTS THEREOF” (SUZHOU HEALIRNA BIOTECHNOLOGY CO., LTD., priority 2022, published 2024).
Bridge positions count the residues as written; N and C are the ends. Ends that are not written are not given here.

Columns and labels:
[1] = Dynamic light scattering of particles formed by cyclic peptide samples with siRNA; format: physicochemical; settings: cyclic peptide/RNA mass ratio 4:1, DLS; for Zeta potential: in mV (unit assumed)
Procedure: Utilizing the Malvern Zetasizer Nano ZS (Malvern Nano Particle Sizing Instrument), the particle size (Size), polydispersity index (PDI), and zeta potential (Zeta P) of the particles formed after samples 1-9 encapsulate siRNA at a cyclic peptide/RNA mass ratio of 4:1 were measured by dynamic light scattering (DLS).

[2] = Dynamic light scattering of cyclic peptide/siRNA and cyclic peptide/lipid/siRNA formulations; format: physicochemical; settings: cyclic peptide/RNA 3:1; before and after binding with lipids (DSPC/cholesterol/RNA 2.4/3.1/1), DLS
Source text: Sample 5 and 8 were selected and initially mixed in a microfluidic channel at a mass ratio of 3:1 cyclic peptide/RNA to form a particle solution, which was then left to stabilize.
The mass ratio of distearoylphosphatidylcholine (DSPC)/cholesterol/RNA was set at 2.4/3.1/1. DSPC and cholesterol were weighed and dissolved in a certain volume of ethanol solution.
The cyclic peptide/siRNA aqueous solution was mixed with the lipid ethanol solution through a microfluidic channel to form composite particles again, where the final concentration of ethanol was 25%. Dialysis was used to remove the ethanol, and the final lipid/cyclic peptide/nucleic acid composite particles were collected.
Using the Malvern Zetasizer Nano ZS, the particle size and polydispersity index (PDI) before and after binding with lipids (5-L and 8-L) were measured for sample 5 and 8 using dynamic light scattering.

siRNA = test: Agarose gel electrophoresis of cyclic peptide/siRNA formulations (encapsulation); format: physicochemical; settings: mass ratio of 4:1 of cyclic peptide/siRNA
Procedure: a. Weigh out 0.5 g of agarose powder and pour it into a conical flask, then add 50 mL of 1×TAE electrophoresis buffer into the flask. Dissolve it completely under heating conditions.
b. After cooling to 65° C., add 5 μL of ethidium bromide, swiftly pour into the gel casting tray, insert the comb, and let it stand at room temperature for 0.5-1 hour until the gel solidifies.
c. Next, remove the comb, pour 1×TAE electrophoresis buffer into the well to submerge the gel.
d. Prepare nine formulations of cyclic peptides with siRNA, using samples 1-9 at mass ratios of 1-4 of sample/siRNA. Mix 2 μL of 6× loading dye with 10 μL of samples, load 10 μL into the wells, and concurrently load 10 μL of DNA Marker and bare siRNA into the wells as controls.
e. Subsequently, run the electrophoresis at […] for 45 minutes, turn off the power supply, remove the gel, and observe and record the electrophoresis image with a UV gel imaging system.

293T cells = test: EGFP mRNA transfection, fluorescence microscopy; format: cell-based, human; settings: 24 hours, S5/mRNA mass ratios 10:1, 12.5:1, 15:1
Source text: 1. Sample preparation: Sample 5 (S5) was selected and mixed in a microfluidic channel to form a particle solution at different cyclic peptide/mRNA mass ratios (10:1, 12.5:1, 15:1), and then left to stabilize.
2. Control formulation: A lipid nanoparticle (LNP) control at a ratio of 4-(N,N-dimethylamino) butyric acid (dilinoleyl) methyl ester/DSPC/cholesterol/1,2-dimyristoyl-rac-glycerol-3-methoxypolyethylene glycol 2000=50:10:38.5:1.5 was used and mRNA was encapsulated according to the method described in Embodiment 3.
3. Cell plating: 293T cells were plated in a 24-well plate with 9 wells per cell type, each well containing 1 ml of medium and 1×10^5 cells, grown for 12 hours until adherence.
4. Solution preparation: PBS (control); for each group in 3 ml serum-free medium, 3×20 μl=60 μl of prepared sample was added and mixed well, 1 ml per well. Transfection group (lipo2000); in 1.2 ml serum-free medium, add 30 μl of mRNA at a concentration of 0.1 μg/μl and 3 μl×3=9 μl of lipo2000, mix well, let stand for 5-10 min. Cells were washed, transfection reagent was added at 400 μl per well, topped up with 600 μl DMEM complete medium. […]
5. Photo capture: Fluorescence photo: exposure time 600 ms, exposure magnification 14, exposure brightness +1; white light photo: exposure time 10 ms, exposure magnification 1, exposure brightness +1.

Ala-Ala-Leu-Ala-Ala-Leu-Ala-Ala-Leu-Cys-Lys-Lys-Lys-Lys-Lys-Cys-Leu-Ala-Ala-Leu-Ala-Ala-Leu-Ala-Ala (AALAALAALCKKKKKCLAALAALAA; disulfide 10-16 (inferred)) [Sample 1]
Polydispersity index [1]: 0.254
Size [1]: 159.6 nm
Zeta potential [1]: 7.09

Arg-Asp-Gly-Lys-Lys-Lys-Leu-Lys-Lys-Lys-Leu-Cys-Gln-Leu-Ile-Lys-Gln-Leu-Ile-Lys-Gln-Leu-Ile-Lys-Gln-Leu-Ile-Lys-Ile-Leu-Gln-Cys-Leu-Lys-Lys-Lys-Leu-Lys-Lys-Lys-Gly-Asp-Arg (RDGKKKLKKKLCQLIKQLIKQLIKQLIKILQCLKKKLKKKGDR; disulfide 12-32 (inferred)) [Sample 8]
PDI [2]: 0.15
Size [2]: 31.85 nm
Polydispersity index [1]: 0.143
Size [1]: 29.92 nm
Zeta potential [1]: 16.5
encapsulation of siRNA (agarose gel electrophoresis) (siRNA): encapsulate siRNA effectively

Arg-Asp-Gly-Lys-Val-Gln-Leu-Lys-Val-Gln-Leu-Cys-Gln-Lys-Lys-Lys-Gln-Lys-Lys-Lys-Gln-Lys-Lys-Lys-Gln-Lys-Lys-Lys-Lys-Lys-Gln-Cys-Leu-Gln-Val-Lys-Leu-Gln-Val-Lys-Gly-Asp-Arg (RDGKVQLKVQLCQKKKQKKKQKKKQKKKKKQCLQVKLQVKGDR; disulfide 12-32 (inferred)) [Sample 9]
Polydispersity index [1]: 0.169
Size [1]: 111.3 nm
Zeta potential [1]: 23.0
encapsulation of siRNA (agarose gel electrophoresis) (siRNA): encapsulate siRNA effectively

KKMLKKMLCQKKKKKQCLMKKLMKK (cysteine pairing not given here) [Sample 2]
Polydispersity index [1]: 0.326
Size [1]: 211.9 nm
Zeta potential [1]: 34.1

Lys-Ala-Met-Leu-Lys-Ala-Met-Leu-Lys-Ala-Met-Leu-Cys-Lys-Lys-Lys-Lys-Lys-Lys-Lys-Lys-Lys-Lys-Lys-Lys-Lys-Lys-Lys-Cys-Leu-Met-Ala-Lys-Leu-Met-Ala-Lys-Leu-Met-Ala-Lys (KAMLKAMLKAMLCKKKKKKKKKKKKKKKCLMAKLMAKLMAK; disulfide 13-29 (inferred)) [Sample 7]
Polydispersity index [1]: 0.139
Size [1]: 145.1 nm
Zeta potential [1]: 26.3
encapsulation of siRNA (agarose gel electrophoresis) (siRNA): encapsulate siRNA effectively

Lys-Gln-Val-Leu-Lys-Gln-Val-Leu-Cys-Gln-Lys-Lys-Lys-Gln-Lys-Lys-Lys-Gln-Lys-Lys-Lys-Gln-Lys-Lys-Lys-Lys-Lys-Gln-Cys-Leu-Val-Gln-Lys-Leu-Val-Gln-Lys (KQVLKQVLCQKKKQKKKQKKKQKKKKKQCLVQKLVQK; disulfide 9-29 (inferred)) [Sample 6]
Polydispersity index [1]: 0.355
Size [1]: 32.58 nm
Zeta potential [1]: 21.2

Lys-Leu-Leu-Lys-Leu-Leu-Lys-Leu-Leu-Lys-Leu-Leu-Cys-Lys-Lys-Lys-Lys-Lys-Cys-Leu-Leu-Lys-Leu-Leu-Lys-Leu-Leu-Lys-Leu-Leu-Lys (KLLKLLKLLKLLCKKKKKCLLKLLKLLKLLK; disulfide 13-19 (inferred)) [Sample 5]
PDI [2]: 0.176
Size [2]: 60.17 nm
green fluorescent protein expression intensity versus control LNP group (293T cells): more pronounced green fluorescent protein compared to the control LNP group
Polydispersity index [1]: 0.133
Size [1]: 81.02 nm
encapsulation of siRNA (agarose gel electrophoresis) (siRNA): encapsulate siRNA effectively

Lys-Lys-Leu-Lys-Lys-Leu-Cys-Lys-Lys-Lys-Lys-Lys-Lys-Lys-Lys-Lys-Lys-Lys-Lys-Lys-Lys-Cys-Leu-Lys-Lys-Leu-Lys-Lys (KKLKKLCKKKKKKKKKKKKKKCLKKLKK; disulfide 7-22 (inferred)) [Sample 3]
Polydispersity index [1]: 0.065
Size [1]: 299.1 nm
Zeta potential [1]: 21.3

Lys-Lys-Leu-Lys-Lys-Leu-Lys-Lys-Leu-Lys-Lys-Leu-Cys-Ala-Phe-Lys-Ala-Phe-Lys-Ala-Phe-Lys-Ala-Phe-Lys-Phe-Ala-Cys (KKLKKLKKLKKLCAFKAFKAFKAFKFAC; disulfide 13-28 (inferred)) [Sample 4]
Polydispersity index [1]: 0.542
Size [1]: 264.5 nm
Zeta potential [1]: 18.6
encapsulation of siRNA (agarose gel electrophoresis) (siRNA): poor encapsulation effects
